One series addresses β subunit of RNAP (E. coli, UniProt P0A8V2 1-1342). Kind of series: cryo-EM structure.
The series “cryo-EM structure” concerns the molecule itself. Kind of series: cryo-EM structure.

β subunit of RNAP, sequence (P0A8V2 whole entry): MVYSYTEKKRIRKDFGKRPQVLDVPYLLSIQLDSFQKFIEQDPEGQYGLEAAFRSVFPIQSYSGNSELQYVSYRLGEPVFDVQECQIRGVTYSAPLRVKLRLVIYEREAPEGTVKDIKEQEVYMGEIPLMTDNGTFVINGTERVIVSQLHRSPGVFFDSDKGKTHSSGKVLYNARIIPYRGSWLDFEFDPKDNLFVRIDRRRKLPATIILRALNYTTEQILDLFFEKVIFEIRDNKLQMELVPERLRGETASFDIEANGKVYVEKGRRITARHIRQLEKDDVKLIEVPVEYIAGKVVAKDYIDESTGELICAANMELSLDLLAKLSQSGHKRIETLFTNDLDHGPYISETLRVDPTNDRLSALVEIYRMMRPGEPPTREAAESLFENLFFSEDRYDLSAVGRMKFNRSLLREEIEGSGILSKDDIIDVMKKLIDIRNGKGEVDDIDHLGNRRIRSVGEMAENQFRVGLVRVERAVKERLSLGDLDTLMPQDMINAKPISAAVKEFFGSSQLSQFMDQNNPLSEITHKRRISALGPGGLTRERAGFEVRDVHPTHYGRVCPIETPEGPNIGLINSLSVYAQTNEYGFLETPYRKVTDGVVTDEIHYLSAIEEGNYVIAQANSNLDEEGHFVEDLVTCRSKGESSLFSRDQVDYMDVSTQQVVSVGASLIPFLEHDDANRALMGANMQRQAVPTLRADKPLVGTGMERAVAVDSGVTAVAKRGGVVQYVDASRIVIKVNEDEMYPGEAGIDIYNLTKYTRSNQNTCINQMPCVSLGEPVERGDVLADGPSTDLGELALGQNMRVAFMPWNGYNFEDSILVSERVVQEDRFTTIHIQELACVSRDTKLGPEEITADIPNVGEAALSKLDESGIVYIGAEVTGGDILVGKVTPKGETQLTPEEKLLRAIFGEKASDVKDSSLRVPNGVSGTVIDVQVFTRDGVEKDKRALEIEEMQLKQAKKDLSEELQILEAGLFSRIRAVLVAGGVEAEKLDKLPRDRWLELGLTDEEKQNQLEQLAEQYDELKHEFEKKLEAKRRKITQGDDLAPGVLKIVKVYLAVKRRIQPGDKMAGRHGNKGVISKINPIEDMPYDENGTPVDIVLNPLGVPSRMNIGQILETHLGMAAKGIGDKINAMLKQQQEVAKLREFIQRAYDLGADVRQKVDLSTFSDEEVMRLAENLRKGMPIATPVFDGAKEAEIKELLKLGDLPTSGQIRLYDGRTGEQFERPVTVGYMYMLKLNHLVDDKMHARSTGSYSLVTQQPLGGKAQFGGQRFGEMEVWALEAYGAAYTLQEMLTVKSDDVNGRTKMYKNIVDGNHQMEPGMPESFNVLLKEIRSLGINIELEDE

B1: Cyclic AMP receptor protein (CAP) (natural protein)
chain: MVLGKPQTDPTLEWFLSHCHIHKYPSKSTLIHQGEKAETLYYIVKGSVAVLIKDEEGKEMILSYLNQGDFIGELGLFEEGQERSAWVRAKTACEVAEISYKKFRQLIQVNPDILMRLSAQMARRLQVTSEKVGNLAFLDVTGRIAQTLLNLAKQPDAMTHPDGMQIKITRQEIGQIVGCSRETVGRILKMLEDQNLISAHGKTIVVYGTR
What is called stoichiometry N is a count of units in the complex or per binding partner. Take B1: in the series with β subunit of RNAP, the binding result is given as “binds”. Also, the “stoichiometry N” value in “cryo-EM structure” stood at 2.

The values above are taken from doi:10.1101/2019.12.13.875658 (bioRxiv, 2019).
